The record followed here is patent publication US20200255508A1 (AbbVie / Abbott, published 2020).

Changes are numbered by the printed parent chain. Read-outs that look alike come from different tables or passages of the source.

In experiment [1] the target is T1, human DLL4 extracellular domain (human, UniProt Q9NR61 27-529).
T1 construct: extracellular domain; coated on plates in the sVEGFR1 assay; also called huDLL4 ECD; Human DLL4 ECD
Put plainly: Biacore SPR. On the technique in general: Surface plasmon resonance follows binding to a sensor surface in real time, without labels.
Protocol: (§1) Binding of DLL4 antibodies to a purified recombinant DLL4 extracellular domain is determined by surface plasmon resonance-based measurements with a Biacore® instrument (either a Biacore 2000, Biacore 3000, or Biacore T100, GE Healthcare, Piscataway, N.J. US) using running buffer HBS-EPB (10 mM HEPES [pH 7.4], 150 mM NaCl, 3 mM EDTA, 0.1 mg/ml BSA and 0.005% surfactant P20) at 25° C. For example, approximately 9000 RU of goat anti-human Fc specific polyclonal antibody (Thermo Fisher Scientific Inc., Rockford, Ill., US) diluted in 10 mM sodium acetate (pH 4.5) is directly immobilized across a CM5 research grade biosensor chip using a standard amine coupling kit according to manufacturer's instructions and procedures at 25 μg/ml. Unreacted moieties on the biosensor surface are blocked with ethanolamine. For kinetic analysis, rate equations derived from the 1:1 Langmuir binding model are fitted simultaneously to multiple antigen injections (using global fit analysis) with the use of Scrubber 2 (BioLogic Software). […] The equilibrium dissociation constant KD (M) of the reaction between antibodies and the target antigen is then calculated from the kinetic rate constants by the following formula: KD=Koff/Kₒₙ. Binding is recorded as a function of time and kinetic rate constants are calculated. In this assay, on-rates as fast as 10⁶ M⁻¹s⁻¹ and off-rates as slow as 10⁻⁶ s⁻¹ can be measured.

The target in experiment [2] is T2, mouse DLL4 extracellular domain (mouse, UniProt Q9JI71 27-532).
T2 construct: extracellular domain; also called muDLL4 ECD; Mouse DLL4 ECD
Put plainly: Biacore SPR.
Protocol: as §1

Experiment [3] has as its target T3, rat DLL4 extracellular domain (rat, UniProt D3ZHH1 28-530).
T3 construct: extracellular domain; also called ratDLL4 ECD
Put plainly: Biacore SPR.
Protocol: as §1

Experiment [4] addresses T1, human DLL4 extracellular domain. Put plainly: capture ELISA. A general note: In an ELISA, binding on a coated surface is turned into a signal by an enzyme label.
Protocol: (§2) ELISA plates were washed 3 times with wash buffer (PBS, 0.05% Tween-20) and then blocked with 200 ml/well blocking buffer (D-PBS, 1% BSA, 1 mM CaCl₂, 0.05% Tween-20) for 1 hour at 25° C. Plates were washed 3 times and incubated with 100 μl/well DLL4 antibodies (0.0001-100 nM, 10-fold serial dilution in blocking buffer) for 1 hour at 25° C., and then washed again 3 times. […] The reaction was stopped after 2 minutes at 25° C. with 100 μl/well 2 N H2SO₄ and the absorbance was read at 450 nm. Data were analyzed using Graphpad Prism software and EC₅₀ values were reported.
For experiment [5], the target named is T2, mouse DLL4 extracellular domain. Put plainly: capture ELISA.
Protocol: as §2
Experiment [6] concerns the target T4, human DLL4 on the cell surface (human, UniProt Q9NR61 27-685).
T4 construct: whole, on cells; also called HEK293-hDLL4; hDLL4-293G
Put plainly: FACS on DLL4 cells.
Protocol: (§3) Stable cell lines overexpressing cell-surface DLL4 were harvested from tissue culture flasks, washed four times and resuspended in phosphate buffered saline (PBS) containing 1% bovine serum albumin and 1 mM CaCl₂ (FACS buffer), 1.5×10³ cells were incubated with antibodies at various concentrations in FACS buffer for 60 minutes on ice. Cells were washed twice and 50 μL of R-phycoerythrin-conjugated anti-rat IgG. […] Following an incubation on ice (4° C., 60 minutes), cells were washed three times and resuspended in FACS buffer. Fluorescence was measured using a Becton Dickinson FACSCalibur-HTS (Becton Dickinson, San Jose. Calif., US). Data were analyzed using Graphpad Prism software and EC₅₀ values were reported as the concentration of antibody to achieve 50% of maximal DLL4 antibodies binding to DLL4 expressing cells.

Experiment [7] addresses T5, mouse DLL4 on the cell surface (mouse, UniProt Q9JI71 27-686).
T5 construct: whole, on cells; also called HEK293-mDLL4; mDLL4-293G
Put plainly: FACS on DLL4 cells.
Protocol: as §3

Experiment [8] addresses T1, human DLL4 extracellular domain. Put plainly: cell-based or functional assay.
The target in experiment [9] is T2, mouse DLL4 extracellular domain. Put plainly: cell-based or functional assay.
For experiment [10], the target named is T4, human DLL4 on the cell surface. Put plainly: cell-based or functional assay.
The target is the same in experiment [11]. Put plainly: competition FACS, competitor huNotch-1.
Protocol: (§4) Notch blocking assay: Briefly, stable cell lines overexpressing cell-surface DLL4 were harvested from tissue culture flasks and re-suspended in phosphate buffered saline (PBS) containing 1% bovine serum albumin and 1 mM CaCl₂ (FACS buffer). HEK293-hDLL4 or HEK293-mDLL4 cells were dispensed into 96-well plate (v-bottom) at 1.5×10⁵ cells/well in FACS buffer. […] After washing the cells two times with FACS buffer, 50 μL of R-phycoerythrin-conjugated streptavidin (1:150 dilution in FACS buffer) (Jackson ImmunoResearch, West Grove, Pa., US, catalog no. 016-110-084) were added. Following an incubation on ice (4° C., 60 minutes), cells were washed three times and resuspended in FACS buffer. Fluorescence was measured using a Becton Dickinson FACSCalibur-HTS (Becton Dickinson, San Jose. Calif.).
The target of experiment [12] is T5, mouse DLL4 on the cell surface. Put plainly: competition FACS, competitor huNotch-1.
Protocol: as §4
Experiment [13] deals with T1, human DLL4 extracellular domain. Put plainly: competition ELISA, competitor huNotch-1.
Protocol: (§5) Plates were then washed 3 times with wash buffer (PBS, 0.05% Tween-20) and blocked with 200 μl/well blocking buffer (D-PBS, 1% BSA, 1 mM CaCl₂, 0.05% Tween-20) for 1 hour at 25° C. […] Assay plates were washed after blocking, and incubated with DLL4/antibody mixtures (100 μl/well, 1 hour at 25° C. with shaking). […] After a final wash, plates were developed using 100 μl/well substrate (TMB Sigma # T8665), and the reaction was stopped after an 8-minute incubation at 25° C. (for muDLL4 ELISA) and after 20 minute incubation at 25° C. (for huDLL4 ELISA) using 100 μl/well 1N HCl, and the absorbance was read at 450 nm.
The target of experiment [14] is T2, mouse DLL4 extracellular domain. Put plainly: competition ELISA, competitor huNotch-1.
Protocol: as §5
Experiment [15] addresses T1, human DLL4 extracellular domain. Put plainly: Biacore SPR. This is another data set of the same source.
Protocol: as §1
Experiment [16] deals with T2, mouse DLL4 extracellular domain. Put plainly: Biacore SPR. This is another data set of the same source.
Protocol: as §1
For experiment [17], the target named is T4, human DLL4 on the cell surface. Put plainly: FACS on DLL4 cells. This is another data set of the same source.
Experiment [18] has the same target. Put plainly: competition FACS, competitor huNotch-1. This is another data set of the same source.
Experiment [19] deals with T5, mouse DLL4 on the cell surface. Put plainly: competition FACS, competitor huNotch-1; competition FACS, huNotch-1/DLL4 cells (IC50).
Protocol: as §4
Experiment [20] addresses T2, mouse DLL4 extracellular domain. Put plainly: Biacore SPR. This is another data set of the same source.
Protocol: The BIACORE® surface plasmon resonance assay (Biacore, Inc., Piscataway, N.J., US) determines the affinity of antibodies with kinetic measurements of on-rate and off-rate constants. Binding of DLL4 antibodies to a purified recombinant DLL4 extracellular domain is determined by surface plasmon resonance-based measurements with a Biacore® instrument (either a Biacore 2000, Biacore 3000, or Biacore T100, GE Healthcare, Piscataway, N.J. US) using running buffer HBS-EPB (10 mM HEPES [pH 7.4], 150 mM NaCl, 3 mM EDTA, 0.1 mg/ml BSA and 0.005% surfactant P20) at 25° C. For example, approximately 9000 RU of goat anti-human Fc specific polyclonal antibody (Thermo Fisher Scientific Inc., Rockford, Ill., US) diluted in 10 mM sodium acetate (pH 4.5) is directly immobilized across a CM5 research grade biosensor chip using a standard amine coupling kit according to manufacturer's instructions and procedures at 25 μg/ml. Unreacted moieties on the biosensor surface are blocked with ethanolamine. For kinetic analysis, rate equations derived from the 1:1 Langmuir binding model are fitted simultaneously to multiple antigen injections (using global fit analysis) with the use of Scrubber 2 (BioLogic Software). […] The equilibrium dissociation constant KD (M) of the reaction between antibodies and the target antigen is then calculated from the kinetic rate constants by the following formula: KD=Koff/Kₒₙ. Binding is recorded as a function of time and kinetic rate constants are calculated. In this assay, on-rates as fast as 10⁶ M⁻¹s⁻¹ and off-rates as slow as 10⁻⁶ s⁻¹ can be measured.
Experiment [21] concerns the target T6, human DLL4-his (human, UniProt Q9NR61 27-529).
T6 construct: extracellular domain
Put plainly: ELISA on DLL4-his.
Protocol: After the final wash, plates were incubated with 100 μl/well ELISA substrate (Sigma # T8665). The reaction was stopped after 8 minutes at 25° C. with 100 μl/well 1N HCl and the absorbance was read at 450 nm. Data were analyzed using Graphpad Prism software and EC50 values were reported.

Experiment [22] addresses T7, mouse DLL4-his (mouse, UniProt Q9JI71 27-532).
T7 construct: extracellular domain; not shown: his tag
Put plainly: ELISA on DLL4-his.

Experiment [23] addresses T4, human DLL4 on the cell surface. Put plainly: FACS on DLL4 cells. The source holds these as a separate data set.
Protocol: as §3
The target in experiment [24] is T5, mouse DLL4 on the cell surface. Put plainly: FACS on DLL4 cells. The source holds these as a separate data set.
Protocol: as §3
Experiment [25] addresses T4, human DLL4 on the cell surface. Put plainly: competition FACS, competitor huNotch-1. This is another data set of the same source.
Protocol: as §4
In experiment [26] the target is T5, mouse DLL4 on the cell surface. Put plainly: competition FACS, competitor huNotch-1. This is another data set of the same source.
Protocol: as §4
Experiment [27] has as its target T1, human DLL4 extracellular domain. Put plainly: competition ELISA, competitor huNotch-1. The source holds these as a separate data set.
Protocol: as §5
Experiment [28] has as its target T2, mouse DLL4 extracellular domain. Put plainly: competition ELISA, competitor huNotch-1. This is another data set of the same source.
Protocol: as §5
The target of experiment [29] is T1, human DLL4 extracellular domain. Put plainly: Biacore SPR (*historic data); historic data, not from the same run as the other cells.

T5 sequence (Q9JI71 27-686): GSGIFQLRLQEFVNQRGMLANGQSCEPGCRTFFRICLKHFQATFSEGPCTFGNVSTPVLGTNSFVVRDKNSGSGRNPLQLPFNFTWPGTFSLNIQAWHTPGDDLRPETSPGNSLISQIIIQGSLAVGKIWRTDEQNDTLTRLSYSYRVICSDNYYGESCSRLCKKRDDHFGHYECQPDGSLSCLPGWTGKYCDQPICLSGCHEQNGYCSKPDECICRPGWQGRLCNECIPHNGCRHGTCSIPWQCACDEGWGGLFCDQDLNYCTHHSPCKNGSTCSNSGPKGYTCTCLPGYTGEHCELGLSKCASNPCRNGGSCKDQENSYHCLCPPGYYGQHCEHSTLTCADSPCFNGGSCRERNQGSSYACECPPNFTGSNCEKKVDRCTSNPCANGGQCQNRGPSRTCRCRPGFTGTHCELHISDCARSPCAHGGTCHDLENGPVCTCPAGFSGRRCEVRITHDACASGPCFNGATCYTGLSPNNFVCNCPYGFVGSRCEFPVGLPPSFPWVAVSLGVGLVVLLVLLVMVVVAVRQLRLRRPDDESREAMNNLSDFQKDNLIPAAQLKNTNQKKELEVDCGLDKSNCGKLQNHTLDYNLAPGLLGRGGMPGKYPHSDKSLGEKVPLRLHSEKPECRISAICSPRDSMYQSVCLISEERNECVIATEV
T2 sequence (Q9JI71 27-532): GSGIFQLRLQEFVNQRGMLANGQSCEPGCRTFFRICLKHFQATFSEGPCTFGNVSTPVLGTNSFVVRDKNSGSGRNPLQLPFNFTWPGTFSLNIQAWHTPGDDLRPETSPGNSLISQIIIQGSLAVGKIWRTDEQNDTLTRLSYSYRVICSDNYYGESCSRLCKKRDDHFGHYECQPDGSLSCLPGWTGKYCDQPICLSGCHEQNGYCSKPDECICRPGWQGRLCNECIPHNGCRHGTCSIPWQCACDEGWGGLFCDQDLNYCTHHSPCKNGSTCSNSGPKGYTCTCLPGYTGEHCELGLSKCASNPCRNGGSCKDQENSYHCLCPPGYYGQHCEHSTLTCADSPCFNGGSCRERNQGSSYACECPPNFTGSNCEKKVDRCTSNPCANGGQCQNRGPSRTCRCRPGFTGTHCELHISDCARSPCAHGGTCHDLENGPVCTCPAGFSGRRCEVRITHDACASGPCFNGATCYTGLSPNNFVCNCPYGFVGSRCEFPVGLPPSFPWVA
T3 sequence (D3ZHH1 28-530): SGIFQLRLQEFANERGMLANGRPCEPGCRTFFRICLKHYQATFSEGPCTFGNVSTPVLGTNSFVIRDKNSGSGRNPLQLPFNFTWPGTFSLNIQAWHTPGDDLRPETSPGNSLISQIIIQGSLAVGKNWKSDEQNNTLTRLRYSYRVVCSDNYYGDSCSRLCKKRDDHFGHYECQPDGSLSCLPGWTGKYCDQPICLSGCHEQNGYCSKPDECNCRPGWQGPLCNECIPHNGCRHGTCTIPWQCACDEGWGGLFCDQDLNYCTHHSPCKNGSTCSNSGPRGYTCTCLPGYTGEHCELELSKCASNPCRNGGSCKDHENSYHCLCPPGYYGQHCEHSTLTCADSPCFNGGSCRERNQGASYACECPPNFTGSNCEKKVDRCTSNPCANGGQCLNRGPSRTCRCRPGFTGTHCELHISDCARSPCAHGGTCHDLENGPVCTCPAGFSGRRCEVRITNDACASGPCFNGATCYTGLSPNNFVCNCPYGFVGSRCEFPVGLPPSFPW
T7 sequence (Q9JI71 27-532): as the sequence (Q9JI71 27-532) above

B1: E9 (antibody, IgG1, V domains shown)
VH: EVQLQESGPGLVKPSETLSLTCTVSGGSISSSSYYWGWIRQPPGKGLEWIGDIYYTGSTYYNPSLKSRVTISVDTSKNQFSLKLSSVTAADTAVYYCAREDVILRGGSDYWGQGTLVTVSS
VL: SYELTQPPSVSVSPGQTASITCSGQRLGDKYASWYQQKPGQSPVLVIYEDSKRPSGIPERFSGSNSGDTATLTISGTQPMDEADYYCQAWDRDTGVFGYGTRVTVL
notes: also called anti-DLL4 PROfusion antibody E9
As to B1, the figures for the dissociation constant (Kd) in experiment [1], in experiment [2] and in experiment [3] were 3.36 nM, 16 nM and 15 nM, respectively. In addition, the koff was found to be 6.6e-05 s⁻¹ in [1], 0.00026 s⁻¹ in experiment [2] and 0.00029 s⁻¹ in [3]. The association rate constant (kon) stood at 20000 M⁻¹ s⁻¹ in experiment [1], 18000 M⁻¹ s⁻¹ in experiment [2] and 19000 M⁻¹ s⁻¹ in [3]. Besides, the EC50 in experiment [4] came to 0.17 nM; in experiment [5], 0.18 nM; in experiment [6], 7.23 nM; in [7], 0.32 nM. In experiment [8], the “sVEGFR1 Inhibition (IC50, nM) DLL4 ECD/EaHy cells, hu” value was found to be 1 nM. Moreover, the “sVEGFR1 Inhibition (IC50, nM) DLL4 ECD/EaHy cells, mu” value in [9] was determined as 0.4 nM. Moreover, the “Inhibition of Notch activation via huDLL4 cells, coculture (IC50, nM)” value in experiment [10] was 6.2 nM. Besides, the concentration for half-maximal inhibition (IC50) in experiment [11] amounted to 23.4 nM; in experiment [12] it was 3.2 nM; in [13] it was 1.7 nM; in experiment [14], 2.1 nM.

B2: E9.16 (antibody, V domains shown)
VH: B1 VH
VL: B1 VL with Q25E, A32V, S51F, R102K
notes: also called DLL4-E9-16 hIgG1/L
Regarding B2, in experiment [15], the dissociation constant Kd was determined as 2.45 nM, the koff is 3.15e-05 s⁻¹ and the kon was determined as 12900 M⁻¹ s⁻¹. Besides, in experiment [16], binding was put at a Kd of 8.1 nM, the koff turned out to be 0.000148 s⁻¹ and the on-rate constant (kon) was found to be 18300 M⁻¹ s⁻¹. The molecule also came in with an EC50 in experiment [17] of 1.7 nM. For the same molecule, the concentration for half-maximal inhibition (IC50) in [18] was found to be 12.6 nM. Also, the concentration for half-maximal inhibition (IC50) in [19] amounted to 1.1 nM.

B3: E9-SE1 (antibody, V domains shown)
VH: EVQLVESGGGLVQPGGSLRLSCAVSGGSISSSSYYWGWIRQAPGKGLEWIGDIYYTGSTYYNPSLKSRVTISVDTSKNSFYLQMNSLRAEDTAVYYCAREDVILRGGSDYWGQGTLVTVSS
VL: LYVLTQPPSVSVSPGQTASITCSGQRLGDKYASWYQQKPGQSPVLVIYEDSKRPSGIPERFSGSNSGDTATLTISGTQTMDEADYLCQAWDRDTGVFGGGTKVTVLG
notes: full-length human IgG1
For the molecule B3, the dissociation constant Kd in experiment [20] was determined as 12.8 nM; in experiment [23] it was 3.45 nM; in [24] it was 1.34 nM; in experiment [29] it was 15.2 nM. The half-maximal effective concentration (EC50) in experiment [21] was 0.16 nM; in experiment [22] it was 0.19 nM. The IC50 was determined as 8.51 nM in experiment [25], 1.71 nM in experiment [26], 2.7 nM in experiment [27] and 2.9 nM in [28].

A word on the Kd: it is the equilibrium constant for the complex coming apart. A low value points to higher affinity. In general, koff refers to a measure of how fast the partners let go of each other. Read a low koff as a long-lived complex. As a reminder, the kon is a measure of how fast the partners come together. A higher kon goes with fast association. The EC50 is the concentration at which the effect is half-maximal. Read a high EC50 as lower potency in that assay. One may read the IC50 as the concentration that inhibits the measured activity by half. Low readings indicate higher potency, high ones lower potency.
